# According to paper PMC12188478, “Leveraging the Aminothiol-Specific Phosphorogenic Response of Iridium(III) Thioester Complexes for the Development of Intracellular Sensors and Cancer Phototherapeutics” (JACS Au, 2025):
# Peptide text beside a SMILES is read from it. * marks the point of attachment. X1 = Cc1cc[n+]2c(c1)-c1cc(C(=O)*)cc[n+]1[Ir-3]213([c]2c(sc4ccccc24)-c2c4ccccc4cc[n+]21)[c]1c(sc2ccccc12)-c1c2ccccc2cc[n+]13; Isonicotinoyl(2-(4-Me-2-Py)) = Cc1ccnc(-c2cc(C(=O)*)ccn2)c1
# Assays:
# HEK-293 cells [1] = test: MTT (photo)cytotoxicity assay; assay type: cell-based; conditions: ratio IC50,dark/IC50,light, 24 h incubation
# Experimental: (§1) HeLa or HEK-293 cells were seeded in two 96-well flat-bottomed microplates (ca. 10,000 cells per well) in growth medium (100 μL) and incubated at 37 °C under a 5% CO2 atmosphere for 48 h. The growth medium was removed and replaced with medium/DMSO (100 μL, 99:1, v/v) containing complex 3a with concentrations ranging from 10^–5 to 10^–8 M. Wells containing untreated cells were used as blank control. The microplates were incubated at 37 °C in the dark under a 5% CO2 atmosphere for 2 h. After the treatment, the medium was removed and replenished with phenol red-free growth medium (100 μL). One of the microplates was irradiated at 450 nm (14.6 mW cm^–2) for 10 min with an LED cellular photocytotoxicity irradiator (PURI Materials, Shenzhen, China) and the other microplate was kept in the dark. Then the growth medium was replaced with fresh medium and the cells were further incubated at 37 °C under a 5% CO2 atmosphere for 24 h. The medium in each well was then replaced with fresh medium (90 μL) and 10 μL of MTT (5 mg mL^ –1) in PBS. The microplates were incubated at 37 °C under a 5% CO2 atmosphere for 4 h. The growth medium was then removed, and DMSO (100 μL) was added to each well. After 20 min, the absorbance of the solutions at 570 nm was measured with an Multiskan SkyHigh Microplate Spectrophotometer (Thermo Scientific). The IC50 values of the complex were determined from dose dependence of surviving cells after the treatment using the OriginPro 8.0 software package. For conjugates 3a-CASP, 3a-CYNT, and 3a-CMYI, the procedure was similar to that of complex 3a, except that MDA-MB-231, MCF-7, and HEK-293 cells were used and the conjugates were incubated for 24 h instead of 2 h before irradiation.
# MDA-MB-231 cells [2] = test: MTT (photo)cytotoxicity assay; assay type: cell-based; conditions: ratio IC50,dark/IC50,light, 24 h incubation
# Experimental: as §1
# MCF-7 cells [3] = test: MTT (photo)cytotoxicity assay; assay type: cell-based; conditions: ratio IC50,dark/IC50,light, 24 h incubation
# Experimental: as §1
# HEK-293 cells [4] = test: Cellular uptake by ICP-MS; assay type: cell-based; conditions: 10 μM, 37 °C, 16 h
# Experimental: (§2) HeLa or HEK-293 cells were seeded in a 35-mm tissue culture dish and incubated at 37 °C under a 5% CO2 atmosphere for 48 h. The culture medium was removed and replaced with complexes 1a and 3a (10 μM) in medium/DMSO (99:1, v/v) at 37 °C under a 5% CO2 atmosphere for 2 h. After the treatment, the medium was removed, and the cells were washed with PBS (1 mL × 3). The cells were then trypsinized and harvested with PBS (1 mL). The cell numbers were obtained by a Logos Biosystems LUNA-II automated cell counter. The resultant solution was digested with 65% HNO3 (1 mL) at 70 °C for 2 h, allowed to cool to room temperature, and analyzed by a NexION 2000 ICP-MS (PerkinElmer SCIEX Instruments). For conjugates 3a-Cys, 3a-CASP, 3a-CYNT, and 3a-CMYI, the procedure was similar to that of complexes 1a and 3a, except that MDA-MB-231, MCF-7, and HEK-293 cells were used and the conjugates were incubated for 16 h instead of 2 h before the measurements.
# MDA-MB-231 cells [5] = test: Cellular uptake by ICP-MS; assay type: cell-based; conditions: 10 μM, 37 °C, 16 h
# Experimental: as §2
# MCF-7 cells [6] = test: Cellular uptake by ICP-MS; assay type: cell-based; conditions: 10 μM, 37 °C, 16 h
# Experimental: as §2
# [7] = 1O2 generation quantum yield; assay type: physicochemical; conditions: aerated CH3CN/H2O (4:1, v/v), 298 K, λex 450 nm
# Experimental: The ^1O2 generation efficiencies of all complexes were evaluated by monitoring the emission band of ^1O2 centered at ca. […]
# MDA-MB-231 cells [8] = test: Cellular uptake mechanism studies (ICP-MS); assay type: cell-based; conditions: 10 μM
# Experimental: Conjugate 3a-CASP: MDA-MB-231 cells were seeded in a 35-mm tissue culture dish and incubated at 37 °C under a 5% CO2 atmosphere for 48 h. The culture medium was removed and replaced with conjugate 3a-CASP (10 μM) in medium/DMSO (99:1, v/v) at 37 °C under a 5% CO2 atmosphere for 4 or 16 h. In the low-temperature experiments, the cells were preincubated at 4 °C for 1 h prior to incubation with conjugate 3a-CASP (10 μM) in medium/DMSO (99:1, v/v) […]. In the chemical inhibition experiments, the cells were pretreated with EIPA (50 μM) for 1.5 h, Me-β-CD (5 mM) for 1 h, or chlorpromazine (30 μM) for 1 h at 37 °C under a 5% CO2 atmosphere. The cells were then washed with PBS (1 mL × 3) and incubated with conjugate 3a-CASP (10 μM) in medium/DMSO (99:1, v/v) at 37 °C under a 5% CO2 atmosphere for 16 h.
# (§3) Conjugate 3a-CYNT: MDA-MB-231 cells were seeded in a 35-mm tissue culture dish and incubated at 37 °C under a 5% CO2 atmosphere for 48 h. The culture medium was removed and replaced with conjugate 3a-CYNT (10 μM) in medium/DMSO (99:1, v/v) at 37 °C under a 5% CO2 atmosphere for 16 h. In the CAIX inhibition experiments, the cells were pretreated with acetazolamide (1 mM) at 37 °C under a 5% CO2 atmosphere for 6 h. The cells were then washed with PBS (1 mL × 3) and incubated with conjugate 3a-CYNT (10 μM) in medium/DMSO (99:1, v/v) at 37 °C under a 5% CO2 atmosphere for 16 h.
# as §3, with “Conjugate 3a-CMYI:” for “Conjugate 3a-CYNT:”, “conjugate 3a-CMYI” for “conjugate 3a-CYNT”, “the EGFR” for “the CAIX”, “with gefitinib (50 μM)” for “with acetazolamide (1 mM)”, “for 1” for “for 6”
# For all the experiments, after incubation with the conjugates, the medium was removed, and the cells were washed with PBS (1 mL × 3). The cells were then trypsinized and harvested with PBS (1 mL). The cell numbers were measured by a Logos Biosystems LUNA-II automated cell counter. The resultant solution was digested with 65% HNO3 (1 mL) at 70 °C for 2 h, allowed to cool to room temperature, and analyzed by a NexION 2000 ICP-MS (PerkinElmer SCIEX Instruments).
# [9] = Reaction kinetics with L-Cys by HPLC; conditions: potassium phosphate buffer (50 mM, pH 7.0)/DMSO (3:2, v/v), TCEP 250 μM, 298 K
# Experimental: The reactivity of the thioester complexes 1a–4a toward N-Cys-containing biomolecules in potassium phosphate buffer (50 mM, pH 7.0)/DMSO (3:2, v/v) containing tris(2-carboxyethyl)-phosphine (TCEP) (250 μM) at 298 K (Scheme ) were investigated using L-Cys as a model. […] The formation of the conjugation products 1a-Cys–4a-Cys was validated by ESI-MS analyses (Figure S7). The isolated conjugate 1a-Cys was further characterized by 1D and 2D COSY ^1H NMR. The signals at δ = 8.18 and 1.89 ppm in the ^1H NMR spectra (Figures S8 and S9) correspond to the CONH and SH protons, respectively, confirming the successful labeling of L-Cys with the thioester complex via the NCL reaction involving transthioesterification and an S → N acyl shift. […]
# All reactions were performed on a 100-µL scale. The reaction kinetics of the thioester complexes 1a – 4a (20 µM) and ligand bpy-COSBn (100 µM) with L-Cys (25 µM for the complexes and 250 µM for the ligand) in potassium phosphate buffer (50 mM, pH 7.0)/DMSO (3:2, v/v) containing TCEP (250 µM) at 298 K was measured by reversed-phase high-performance liquid chromatography (RP-HPLC). The reactions at different time points were quenched by the addition of 900 µL of cold H2O/CH3CN (1:1, v/v) and then analyzed by RP-HPLC. […] The second-order rate constants (k2) were determined by fitting the data to the following equation: […]
Structure (SMILES),PI (HEK-293 cells [1]),PI (MDA-MB-231 cells [2]),PI (MCF-7 cells [3]),Amount of iridium associated with an average cell (HEK-293 cells [4]) [fmol],Amount of iridium associated with an average cell (MDA-MB-231 cells [5]) [fmol],Amount of iridium associated with an average cell (MCF-7 cells [6]) [fmol],1O2 generation quantum yield (ΦΔ) [7],"reduction of uptake after gefitinib (EGFR inhibitor) pretreatment (MDA-MB-231 cells [8]; 16 h, gefitinib 50 μM, 1 h) [%]",second-order rate constant (k2) for reaction with L-Cys [9] [M^–1 s^–1],"reduction of uptake after acetazolamide (CAIX inhibitor) pretreatment (MDA-MB-231 cells [8]; 16 h, acetazolamide 1 mM, 6 h)","decrease in intracellular iridium content at 4 °C (MDA-MB-231 cells [8]; 4 h, 4 °C versus 37 °C)","reduction of cellular uptake efficiency after chlorpromazine pretreatment (MDA-MB-231 cells [8]; 16 h, chlorpromazine 30 μM, 1 h)"
CC[C@H](C)[C@H](NC(=O)[C@H](Cc1ccc(O)cc1)NC(=O)[C@H](CCSC)NC(=O)[C@H](CS)NC(=O)c1cc[n+]2c(c1)-c1cc(C)cc[n+]1[Ir-3]213([c]2c(sc4ccccc24)-c2c4ccccc4cc[n+]21)[c]1c(sc2ccccc12)-c1c2ccccc2cc[n+]13)C(=O)N[C@@H](CCC(=O)O)C(=O)N[C@@H](C)C(=O)N[C@@H](CC(C)C)C(=O)N[C@@H](CC(=O)O)C(=O)N[C@@H](CCCCN)C(=O)N[C@@H](Cc1ccc(O)cc1)C(=O)N[C@@H](C)C(=O)N[C@@H](CS)C(=O)O [Conjugate 3a-CMYI] (X1-CMYIEALDKYAC-OH; C-terminus assumed),>28,>109,>25,0.033,0.21,0.074,0.20,~10,–,–,–,–
"Cc1ccnc(-c2cc(C(=O)SCc3ccccc3)ccn2)c1 [bpy-COSBn, S-benzyl 4’-methyl-2,2’-bipyridine-4-carbothioate]",–,–,–,–,–,–,–,–,11.3,–,–,–
Cc1cc[n+]2c(c1)-c1cc(C(=O)N[C@@H](CS)C(=O)N[C@@H](Cc3ccc(O)cc3)C(=O)N[C@@H](CC(N)=O)C(=O)N[C@H](C(=O)N[C@@H](CC(N)=O)C(=O)N[C@@H](Cc3c[nH]cn3)C(=O)N[C@H](C(=O)N3CCC[C@H]3C(=O)N[C@@H](CC(C)C)C(=O)N[C@@H](CO)C(=O)N3CCC[C@H]3C(=O)N[C@@H](CCCCN)C(=O)N[C@@H](Cc3ccc(O)cc3)C(=O)O)C(C)C)[C@@H](C)O)cc[n+]1[Ir-3]213([c]2c(sc4ccccc24)-c2c4ccccc4cc[n+]21)[c]1c(sc2ccccc12)-c1c2ccccc2cc[n+]13 [Conjugate 3a-CYNT] (X1-CYNTNHVPLSPKY-OH; C-terminus assumed),>45,>139,>38,0.10,1.8,0.10,0.28,–,–,ca. 20%,–,–
Cc1ccnc(-c2cc(C(=O)N[C@@H](CS)C(=O)N[C@@H](C)C(=O)N[C@@H](CO)C(=O)N3CCC[C@H]3C(=O)N[C@@H](CO)C(=O)NCC(=O)N[C@@H](C)C(=O)N[C@@H](CC(C)C)C(=O)N[C@@H](CCCNC(=N)N)C(=O)N[C@@H](CO)C(=O)N[C@@H](CS)C(=O)O)ccn2)c1 [Conjugate 3a-CASP] ({Isonicotinoyl(2-(4-Me-2-Py))}-CASPSGALRSC-OH; C-terminus assumed),>18,>61,>18,0.074,1.6,0.10,0.24,–,–,–,ca. 70%,ca. 30%
